In patent US20240010735A1 (EISAI R AND D MANAGEMENT, published 2024):

Experiments:
Assay in all cases: ELISA: SEAP-His proteins (1 nM) captured on anti-6-His antibody, antibody B 10 µg/mL with human IgG 100 µg/mL, HRP anti-human IgG, OD450 as % of human EphA4-SEAP-His
[1] = target: T1, human EphA2 extracellular region-SEAP-His protein (human, UniProt P29317 24-537)
T1 construct: extracellular domain; also called Eph receptor extracellular region-SEAP-His protein; not shown: secretory alkaline phosphatase (SEAP); histidine tag
T1 sequence (P29317 24-537): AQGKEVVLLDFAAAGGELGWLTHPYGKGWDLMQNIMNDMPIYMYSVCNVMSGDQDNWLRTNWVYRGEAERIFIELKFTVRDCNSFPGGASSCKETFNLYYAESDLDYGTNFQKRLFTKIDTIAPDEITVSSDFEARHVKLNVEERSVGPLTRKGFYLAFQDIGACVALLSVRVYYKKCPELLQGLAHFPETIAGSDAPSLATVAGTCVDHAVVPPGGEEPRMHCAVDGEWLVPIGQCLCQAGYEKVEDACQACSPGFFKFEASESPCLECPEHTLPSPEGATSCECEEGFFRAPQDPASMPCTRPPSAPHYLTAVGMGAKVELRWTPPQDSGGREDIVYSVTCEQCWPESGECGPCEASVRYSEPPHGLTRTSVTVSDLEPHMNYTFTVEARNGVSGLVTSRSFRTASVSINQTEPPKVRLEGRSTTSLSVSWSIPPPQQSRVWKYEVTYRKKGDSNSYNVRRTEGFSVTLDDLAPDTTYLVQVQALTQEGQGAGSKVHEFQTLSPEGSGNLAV

[2] = target: T2, human EphA7 extracellular region-SEAP-His protein (human, UniProt Q15375 28-555)
T2 construct: extracellular domain; also called Eph receptor extracellular region-SEAP-His protein; not shown: secretory alkaline phosphatase (SEAP); histidine tag
T2 sequence (looked up): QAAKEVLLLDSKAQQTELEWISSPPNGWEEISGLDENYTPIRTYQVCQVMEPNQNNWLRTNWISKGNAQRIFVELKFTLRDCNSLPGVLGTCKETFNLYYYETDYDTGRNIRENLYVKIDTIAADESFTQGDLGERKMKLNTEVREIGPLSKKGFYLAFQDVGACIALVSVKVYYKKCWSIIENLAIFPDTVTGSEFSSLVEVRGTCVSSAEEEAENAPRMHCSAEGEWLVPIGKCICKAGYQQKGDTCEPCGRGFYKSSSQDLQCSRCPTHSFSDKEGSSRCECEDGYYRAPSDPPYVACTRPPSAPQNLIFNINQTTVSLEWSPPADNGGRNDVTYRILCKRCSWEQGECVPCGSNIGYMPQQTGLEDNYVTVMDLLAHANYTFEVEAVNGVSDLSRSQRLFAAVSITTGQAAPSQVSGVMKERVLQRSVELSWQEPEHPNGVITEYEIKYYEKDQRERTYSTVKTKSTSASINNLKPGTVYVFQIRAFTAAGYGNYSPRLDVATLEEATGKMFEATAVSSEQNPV

[3] = target: T3, human EphB1 extracellular region-SEAP-His protein (human, UniProt P54762 18-540)
T3 construct: extracellular domain; also called Eph receptor extracellular region-SEAP-His protein; not shown: secretory alkaline phosphatase (SEAP); histidine tag
T3 sequence (looked up): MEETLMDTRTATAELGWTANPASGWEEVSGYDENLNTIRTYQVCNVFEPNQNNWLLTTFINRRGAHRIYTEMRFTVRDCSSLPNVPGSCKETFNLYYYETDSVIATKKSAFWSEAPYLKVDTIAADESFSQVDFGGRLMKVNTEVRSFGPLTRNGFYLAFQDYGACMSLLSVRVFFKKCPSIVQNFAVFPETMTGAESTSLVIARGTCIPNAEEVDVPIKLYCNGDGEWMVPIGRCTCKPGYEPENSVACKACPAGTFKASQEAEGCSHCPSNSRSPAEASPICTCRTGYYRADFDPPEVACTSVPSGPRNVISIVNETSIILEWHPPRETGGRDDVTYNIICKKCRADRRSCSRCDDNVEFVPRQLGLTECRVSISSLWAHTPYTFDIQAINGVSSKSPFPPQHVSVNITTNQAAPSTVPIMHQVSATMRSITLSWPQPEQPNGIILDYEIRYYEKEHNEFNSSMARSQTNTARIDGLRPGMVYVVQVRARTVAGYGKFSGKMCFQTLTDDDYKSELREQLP

Measured: binding result

B1: humanized anti-EphA4 monoclonal antibody (antibody B) (antibody, human IgG2, V domains shown)
VH: QVQLVESGGGVVQPGRSLRLSCAVSGFSLTRFGVHWVRQAPGKGLEWVAVIWRGGSTDYNAAFMSRLTISKDNSKNTVYLQMNSLRAEDTAVYYCAKESLFGVYYDYGYYSMDYWGQGTTVTVSS
VL: DIQMTQSPSSLSASVGDRVTITCRASQEISGYLSWLQQKPGKAPKRLIYAASTLDSGVPSRFSGSRSGTEYTLTISSLQPEDFATYYCLQYASYPLTFGGGTKVEIKR
notes: expressed in Expi293F cells; also called humanized antibody of antibody A; HK2-42 / L1-8
no binding (tested: 10 µg/mL): all assays above
